Laboratory results reported in patent US20230391845A1, “GLP-1, GIP AND GLUCAGON RECEPTOR TRIPLE AGONISTS” (priority 2020, published 2023).
Like-named read-outs stand apart in the source and are kept apart here. *1 amine or outer side, *2 acyl side, *3 side chain or, on linkers, in order; H or OH if unused. Where a SMILES comes first, the peptide text is derived from it. Where no end group is shown, it is not given here. Side-chain parts run from the residue outwards. [ ]: non-standard residue; d: D form. The star is where a group is joined. C20 diacid = O=C(O)CCCCCCCCCCCCCCCCCCC(=O)*; γGlu = O=C(O)[C@H](CCC(=O)[*:2])N[*:1]; εLys = N[C@@H](CCCCN[*:1])C(=O)[*:2]; Palmitoyl = CCCCCCCCCCCCCCCC(=O)*; Aib = CC(C)(N)C(=O)O

T1: human GIP receptor (Homo sapiens, UniProt P48546)
T1 construct: expressed in transfected cells; host or cells: BHK cells (parent line BHKTS13) containing CRE luciferase
T1 sequence (P48546 22-466): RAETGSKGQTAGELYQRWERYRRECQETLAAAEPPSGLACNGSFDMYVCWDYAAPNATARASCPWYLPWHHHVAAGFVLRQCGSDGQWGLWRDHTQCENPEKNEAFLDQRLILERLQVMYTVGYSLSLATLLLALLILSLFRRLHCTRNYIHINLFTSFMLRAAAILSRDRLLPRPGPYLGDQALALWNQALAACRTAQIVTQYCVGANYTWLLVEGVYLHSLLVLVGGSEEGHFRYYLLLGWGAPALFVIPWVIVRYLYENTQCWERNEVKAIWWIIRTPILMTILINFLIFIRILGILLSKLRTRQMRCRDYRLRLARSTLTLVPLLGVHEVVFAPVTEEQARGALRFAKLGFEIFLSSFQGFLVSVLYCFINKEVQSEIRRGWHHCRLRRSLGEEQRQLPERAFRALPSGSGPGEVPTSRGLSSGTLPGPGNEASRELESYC

T2: human glucose-dependent insulinotropic polypeptide receptor (human, UniProt P48546 22-466)
T2 sequence (looked up): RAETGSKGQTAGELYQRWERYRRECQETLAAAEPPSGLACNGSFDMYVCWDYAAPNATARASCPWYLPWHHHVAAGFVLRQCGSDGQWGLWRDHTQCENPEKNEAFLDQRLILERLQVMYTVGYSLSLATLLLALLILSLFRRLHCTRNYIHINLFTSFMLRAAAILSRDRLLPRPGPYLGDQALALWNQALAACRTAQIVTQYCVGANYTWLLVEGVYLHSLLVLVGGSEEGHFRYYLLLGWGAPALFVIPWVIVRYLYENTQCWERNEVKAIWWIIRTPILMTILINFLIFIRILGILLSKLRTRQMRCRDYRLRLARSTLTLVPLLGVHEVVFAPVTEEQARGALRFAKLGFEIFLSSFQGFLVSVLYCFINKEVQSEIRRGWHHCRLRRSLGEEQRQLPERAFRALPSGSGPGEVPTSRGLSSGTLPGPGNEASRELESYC


Experiments:
human GLP-1 receptor = target: T3, human GLP-1 receptor (Homo sapiens, UniProt P43220); assay: In vitro functional potency (CRE luciferase; whole cells), human GLP-1R; format: cell-based; conditions: BHK CRE luc2P hGLP-1R whole cells; Table 2; read-out: hGLP-1R CRE Luc EC50
T3 construct: expressed in transfected cells; host or cells: BHK cells (parent line BHKTS13) containing CRE luciferase

human GIP receptor = target: T1, human GIP receptor; assay: In vitro functional potency (CRE luciferase; whole cells), human GIPR; format: cell-based; conditions: BHK CRE luc2P hGIPR whole cells; Table 2; read-out: hGIPR CRE Luc EC50
Description: The purpose of this example is to test the functional activity, or potency, of the compounds in vitro at the human and mouse GLP-1, GIP, and Gcg receptors. The in vitro functional potency is the measure of target receptor activation in a whole cell assay.
In vitro functional potency was determined by measuring the response of the target receptor in a reporter gene assay in individual cell lines. The assay was performed in stably transfected BHK cell lines that expresses one of the following G-protein coupled receptors: human GLP-1 receptor, human GIP receptor, human Gcg receptor, mouse GLP-1 receptor, mouse GIP receptor, or mouse Gcg receptor; and where each cell line contains the DNA for the cAMP response element (CRE) coupled to a promoter and the gene for firefly luciferase (CRE luciferase). When the respective receptor is activated, it results in the production of cAMP, which in turn results in expression of the luciferase protein. When assay incubation is completed, luciferase substrate (luciferin) is added resulting in the enzymatic conversion of luciferin to oxyluciferin and producing bioluminescence. The luminescence is measured as the readout for the assay.
The cells lines used in these assays were BHK cells with BHKTS13 as a parent cell line. The cell lines were derived from a clone containing the CRE luciferase element and were established by further transfection with the respective receptor to obtain the relevant cell line.
The cells were cultured at 37° C. with 5% CO2 in Cell Culture Medium. They were aliquoted and stored in liquid nitrogen. The cells were kept in continuous culture and were seeded out the day before each assay.
GLP-1R and GcgR Cell Culture Medium consisted of DMEM medium with 10% FBS, 500 µg/mL G418, and 300 µg/mL hygromycin. GIPR Cell Culture Medium consisted of DMEM medium with 10% FBS, 400 µg/mL G418, and 300 µg/mL hygromycin. Assay Buffer consisted of DMEM w/o phenol red, 10 mM Hepes, 1× Glutamax, 1% ovalbumin, and 0.1% Pluronic F-68.
• 1) Cells were plated at 5000 cells/well and incubated overnight in the assay plate. • 2) Cells were washed once in DPBS. • 3) Stocks of the test compounds and reference compounds in concentrations ranging from 100-300 pM were diluted 1:150 in Assay Buffer.
The data from the microtiter plate reader was first regressed in an Excel in order to calculate the x-axis, log scale concentrations based on the individual test compound's stock concentration and the dilutions of the assay. […] The software performs a non-linear regression (log(agonist) vs response). A minimum of two replicates was measured for each sample. The reported values are averages of the replicates.

[1] = Pharmacokinetic study in minipigs, i.v. administration; design: species or system Göttingen minipigs; conditions: female, Göttingen, minipig, in vivo, iv
In short: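 Terminal half-life, reported as harmonic mean, came from non-compartmental fits of plasma levels measured by antibody assay or LCMS over up to 14 days. Dosing was i.v., typically 1.5-2 nmol/kg, through implanted caval catheters in fasted female Göttingen minipigs of 16-35 kg.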

[2] = target: T4, human glucagon-like peptide 1 receptor (human, UniProt P43220 24-463); assay: cell-based or functional assay
[3] = target: T2, human glucose-dependent insulinotropic …; assay: cell-based or functional assay
human glucagon receptor [4] = target: T5, human glucagon receptor (human, UniProt P47871 26-477); assay: cell-based or functional assay
[5] = target: T4, human glucagon-like peptide 1 receptor; assay: cell-based or functional assay; remark: listed apart in the source
[6] = target: T2, human glucose-dependent insulinotropic …; assay: cell-based or functional assay; remark: listed apart in the source
human glucagon receptor [7] = target: T5, human glucagon receptor; assay: cell-based or functional assay; remark: listed apart in the source

T5 sequence (P47871 26-477): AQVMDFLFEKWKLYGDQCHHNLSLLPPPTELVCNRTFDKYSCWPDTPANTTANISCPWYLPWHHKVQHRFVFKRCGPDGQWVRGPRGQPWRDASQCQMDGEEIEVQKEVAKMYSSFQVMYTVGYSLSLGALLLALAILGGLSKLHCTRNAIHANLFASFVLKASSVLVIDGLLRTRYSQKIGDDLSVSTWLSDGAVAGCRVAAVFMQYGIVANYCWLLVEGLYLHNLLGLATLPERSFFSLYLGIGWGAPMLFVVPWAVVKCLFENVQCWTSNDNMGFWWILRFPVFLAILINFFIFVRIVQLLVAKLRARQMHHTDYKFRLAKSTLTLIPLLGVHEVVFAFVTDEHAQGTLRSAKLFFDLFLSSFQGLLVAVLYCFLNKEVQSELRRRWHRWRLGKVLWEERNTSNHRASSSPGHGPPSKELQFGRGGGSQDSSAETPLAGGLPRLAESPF
T3 sequence (P43220 24-463): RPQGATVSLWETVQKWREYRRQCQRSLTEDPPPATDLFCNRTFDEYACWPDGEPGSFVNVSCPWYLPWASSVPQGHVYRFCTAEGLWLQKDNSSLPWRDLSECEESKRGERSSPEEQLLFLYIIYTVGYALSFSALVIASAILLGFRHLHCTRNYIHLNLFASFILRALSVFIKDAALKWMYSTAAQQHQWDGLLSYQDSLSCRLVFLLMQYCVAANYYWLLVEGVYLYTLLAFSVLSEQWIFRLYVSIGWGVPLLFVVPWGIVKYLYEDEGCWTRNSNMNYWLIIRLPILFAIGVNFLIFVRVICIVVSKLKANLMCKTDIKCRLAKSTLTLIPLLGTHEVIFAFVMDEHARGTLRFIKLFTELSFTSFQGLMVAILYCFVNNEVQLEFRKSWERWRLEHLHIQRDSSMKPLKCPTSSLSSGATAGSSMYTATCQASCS

| Molecule | EC50 (human GLP-1 receptor) | EC50 (human GIP receptor) | half-life [1] | hGLP-1R CRE Luc EC50 (pM) [2] | hGIPR CRE Luc EC50 (pM) [3] | hGcgR CRE Luc EC50 (pM) (human glucagon receptor [4]) | hGLP-1R CRE Luc EC50 (pM) [5] | hGIPR CRE Luc EC50 (pM) [6] | hGcgR CRE Luc EC50 (pM) (human glucagon receptor [7]) |
| --- | --- | --- | --- | --- | --- | --- | --- | --- | --- |
| CC[C@H](C)[C@H](NC(=O)[C@H](CO)NC(=O)[C@H](Cc1ccc(O)cc1)NC(=O)[C@H](CC(=O)O)NC(=O)[C@H](CO)NC(=O)[C@@H](NC(=O)[C@H](Cc1ccccc1)NC(=O)[C@@H](NC(=O)CNC(=O)[C@H](Cc1c[nH]cn1)NC(=O)C(C)(C)NC(=O)[C@@H](N)Cc1c[nH]cn1)[C@@H](C)O)[C@@H](C)O)C(=O)N[C@@H](CC(C)C)C(=O)N[C@@H](CC(C)C)C(=O)N[C@@H](CCC(=O)O)C(=O)N[C@@H](CCCCNC(=O)[C@@H](N)CCCCNC(=O)[C@@H](N)CCCCNC(=O)CC[C@H](NC(=O)CCCCCCCCCCCCCCCCCCC(=O)O)C(=O)O)C(=O)N[C@@H](CCCCN)C(=O)N[C@@H](Cc1ccc(O)cc1)C(=O)N[C@@H](C)C(=O)NC(C)(C)C(=O)N[C@@H](CCC(=O)O)C(=O)N[C@@H](Cc1ccccc1)C(=O)N[C@H](C(=O)N[C@@H](CCC(N)=O)C(=O)N[C@@H](Cc1c[nH]c2ccccc12)C(=O)N[C@@H](CC(C)C)C(=O)N[C@@H](CC(C)C)C(=O)N[C@@H](CCC(=O)O)C(=O)NCC(=O)NCC(=O)N1CCC[C@H]1C(=O)N[C@@H](CO)C(=O)N[C@@H](CO)C(=O)NCC(=O)N[C@@H](C)C(=O)N1CCC[C@H]1C(=O)N1CCC[C@H]1C(=O)N1CCC[C@H]1C(=O)N[C@@H](CO)C(N)=O)C(C)C [Compound No. 41] (H-H[Aib]HGTFTSDYSILLEK([εLys-εLys-γGlu-C20 diacid])KYA[Aib]EFVQWLLEGGPSSGAPPPS-NH2) | 4.3 pM | 9.3 pM | 69 h |  |  |  |  |  |  |
| Y[Aib]QGTFTSDYSIYLDKQAA[Aib]EFVNWLLAGGPSSGKPPPS-NH2 (not fully specified (residue 35)) [Compound No. 66] |  |  |  | 12 pM | 26 pM | 1020 pM |  |  |  |
| Y[Aib]QGTFTSDYSIYLDKQAA[Aib]EFVNWLLAGGPSSGAPPPSK-NH2 (not fully specified (residue 40)) [Compound No. 59] |  |  |  | 11.7 pM | 44.5 pM | 703 pM |  |  |  |
| Y[Aib]QGTFTSDYSIKLDKQAA[Aib]EFVNWLLAGGPSSGAPPPS-NH2 (not fully specified (residue 13)) [Compound No. 62] |  |  |  | 36 pM | 65 pM | 891 pM |  |  |  |
| Y[Aib]QGTFTSDYSIYLDKKAA[Aib]EFVNWLLAGGPSSGAPPPS-NH2 (not fully specified (residue 17); printed as Y-Aib-QGTFTSDYSIYLDK-K[2-[2-[2-[[2-[2-[2-[[(4S)-4-carboxy-4-(17-carboxyheptadecanoylamino)butanoyl]amino]ethoxy]ethoxy]acetyl]amino]ethoxy]ethoxy]acetyl]-AA-Aib-EFVNWLLAGGPSSGAPPPS-NH2) [Compound No. 2] |  |  |  | 7.1 pM | 49.8 pM | 47.6 pM | 7.1 pM | 49.8 pM | 47.6 pM |
| Y[Aib]QGTFTSDYSIYLDKQAA[Aib]EFVNWLLAGGPSSGAPPPS-NH2 (not fully specified (residue 16); printed as Y-Aib-QGTFTSDYSIYLD-K[2-[2-[2-[[2-[2-[2-[[(4S)-4-carboxy-4-(17-carboxyheptadecanoylamino)butanoyl]amino]ethoxy]ethoxy]acetyl]amino]ethoxy]ethoxy]acetyl]-QAA-Aib-EFVNWLLAGGPSSGAPPPS-NH2) [Compound No. 1] |  |  |  | 8.6 pM | 23.7 pM | 157 pM | 8.6 pM | 23.7 pM | 157 pM |
| Y[Aib]QGTFTSDYSIYKDKQAA[Aib]EFVNWLLAGGPSSGAPPPS-NH2 (not fully specified (residue 14)) [Compound No. 63] |  |  |  | 25 pM | 175 pM | 1110 pM |  |  |  |
| Y[Aib]QGTFTSDYSIYLDKQAA[Aib]EFVNWLLAKGPSSGAPPPS-NH2 (not fully specified (residue 29)) [Compound No. 65] |  |  |  | 132 pM | 56 pM | 1350 pM |  |  |  |
| Y[Aib]QGTFTSDYSIYLDKQAAKEFVNWLLAGGPSSGAPPPS-NH2 (not fully specified (residue 20); printed as Y-Aib-QGTFTSDYSIYLDKQAA-K[2-[2-[2-[[2-[2-[2-[[(4S)-4-carboxy-4-(17-carboxyheptadecanoylamino)butanoyl]amino]ethoxy]ethoxy]acetyl]amino]ethoxy]ethoxy]acetyl]-EFVNWLLAGGPSSGAPPPS-NH2) [Compound No. 60] |  |  |  | 14.9 pM | 416 pM | 182 pM |  |  |  |
| Y[Aib]QGTFTSDYSIYLDKQAA[Aib]KFVNWLLAGGPSSGAPPPS-NH2 (not fully specified (residue 21); printed as Y-Aib-QGTFTSDYSIYLDKQAA-Aib-K[2-[2-[2-[[2-[2-[2-[[(4S)-4-carboxy-4-(17-carboxyheptadecanoylamino)butanoyl]amino]ethoxy]ethoxy]acetyl]amino]ethoxy]ethoxy]acetyl]-FVNWLLAGGPSSGAPPPS-NH2) [Compound No. 3] |  |  |  | 5.4 pM | 27.5 pM | 34.7 pM | 5.4 pM | 27.5 pM | 34.7 pM |
| Y[Aib]QGTFTSDYSIYLDKQAA[Aib]EFVNWLLAGGPSSGAPPPSK(Palmitoyl)-NH2 (N-terminus assumed; SMILES CCCCCCCCCCCCCCCC(=O)NCCCC[C@H](NC(=O)[C@H](CO)NC(=O)[C@@H]1CCCN1C(=O)[C@@H]1CCCN1C(=O)[C@@H]1CCCN1C(=O)[C@H](C)NC(=O)CNC(=O)[C@H](CO)NC(=O)[C@H](CO)NC(=O)[C@@H]1CCCN1C(=O)CNC(=O)CNC(=O)[C@H](C)NC(=O)[C@H](CC(C)C)NC(=O)[C@H](CC(C)C)NC(=O)[C@H](Cc1c[nH]c2ccccc12)NC(=O)[C@H](CC(N)=O)NC(=O)[C@@H](NC(=O)[C@H](Cc1ccccc1)NC(=O)[C@H](CCC(=O)O)NC(=O)C(C)(C)NC(=O)[C@H](C)NC(=O)[C@H](C)NC(=O)[C@H](CCC(N)=O)NC(=O)[C@H](CCCCN)NC(=O)[C@H](CC(=O)O)NC(=O)[C@H](CC(C)C)NC(=O)[C@H](Cc1ccc(O)cc1)NC(=O)[C@@H](NC(=O)[C@H](CO)NC(=O)[C@H](Cc1ccc(O)cc1)NC(=O)[C@H](CC(=O)O)NC(=O)[C@H](CO)NC(=O)[C@@H](NC(=O)[C@H](Cc1ccccc1)NC(=O)[C@@H](NC(=O)CNC(=O)[C@H](CCC(N)=O)NC(=O)C(C)(C)NC(=O)[C@@H](N)Cc1ccc(O)cc1)[C@@H](C)O)[C@@H](C)O)[C@@H](C)CC)C(C)C)C(N)=O) [Compound No. 58] |  |  |  | 4.1 pM | 7.2 pM | 21.2 pM |  |  |  |
| Y[Aib]QGTFTSDYSIYLDKQAA[Aib]EFVKWLLAGGPSSGAPPPS-NH2 (not fully specified (residue 24)) [Compound No. 64] |  |  |  | 45.4 pM | 174 pM | 464 pM |  |  |  |
